Positions count from the first letter of the chain named. Names may count otherwise.

These results are taken from patent US6140364A, “Arachidonic acid metabolite, 16-HETE” (The University of Vermont and State Agricultural College, priority 1996, dated 2000).

Data set [1] concerns rabbit model of thromboembolic stroke (brain infarct). The data set can be described thus: Brain infarct size in rabbit model of thromboembolic stroke. The format is in vivo. To be noted: 16-HETE 1 μg/kg per minute for 1 hour from 1 h after embolization, tPA 6.3 mg/kg between 3 and 5 hours.
Method: New Zealand rabbits of either sex, weighing 3-4 kilograms were used for the study. Prior to the start of the experiment, the rabbits were divided into three groups, those that were administered either 16-HETE at a rate of 1 μg/kg per minute for one hour, tPA (Genentech, Inc., San Francisco, Calif.) at a concentration of 6.3 mg/kg. 16-HETE plus tPA, or vehicle.
On the day of treatment the animals were fasted for 12 hours with free access to water and then anesthetized with an intramuscular solution of ketamine (50 mg/kg), acepromazine (20 mg) and xylazine (5 mg/kg). This solution was subsequently used to maintain a surgical depth of anesthesia as determined by responses to various physiologic and autonomic stimuli, including mean arterial pressure and response to paw pinch.
The animals were prepared for surgery by introducing femoral venous and arterial catheters (PE50 and 90, respectively; Clay Adams, Parsippany, N.J.). […]
Following determination of all base line values the right common carotid bifurcation is exposed, the internal carotid artery (ICA) isolated, a micro-arteriotomy performed and the 15-mm clot embolized intracranially via the ICA. […] Post embolization rCBF is then determined and the experiment continued if rCBF is reduced to 15 cc /100 gm/minute in at least one of the PT-IR electrodes within the embolized hemisphere. […]
Data set [2] relates to fibrin. To be noted: compared with native tPA or other variants; cited from earlier work.
The conditions of data set [3]: compared with native tPA; cited from earlier work.

B1: tPA: tissue plasminogen activator (Genentech, Inc.), thrombolytic agent (protein, UniProt P00750 36-562, looked up)
Tissue-type plasminogen …: SYQVICRDEKTQMIYQQHQSWLRPVLRSNRVEYCWCNSGRAQCHSVPVKSCSEPRCFNGGTCQQALYFSDFVCQCPEGFAGKCCEIDTRATCYEDQGISYRGTWSTAESGAECTNWNSSALAQKPYSGRRPDAIRLGLGNHNYCRNPDRDSKPWCYVFKAGKYSSEFCSTPACSEGNSDCYFGNGSAYRGTHSLTESGASCLPWNSMILIGKVYTAQNPSAQALGLGKHNYCRNPDGDAKPWCHVLKNRRLTWEYCDVPSCSTCGLRQYSQPQFRIKGGLFADIASHPWQAAIFAKHRRSPGERFLCGGILISSCWILSAAHCFQERFPPHHLTVILGRTYRVVPGEEEQKFEVEKYIVHKEFDDDTYDNDIALLQLKSDSSRCAQESSVVRTVCLPPADLQLPDWTECELSGYGKHEALSPFYSERLKEAHVRLYPSSRCTSQHLLNRTVTDNMLCAGDTRSGGPQANLHDACQGDSGGPLVCLNDGRMTLVGIISWGLGCGQKDVPGVYTKVTNYLDWIRDNMRP
For the molecule B1, the brain infarct size entry in data set [1] is recorded as “significantly larger than the 16-HETE group”.

B2: TNK tPA: triple mutant variant of wild type tPA: T103N, N117Q, KHRR (296-299) AAAA tPA (protein, UniProt P00750 36-562, looked up, variant T103N N117Q K296A H297A R298A R299A)
Tissue-type plasminogen …: B1 Tissue-type plasminogen … with T103N, N117Q, K296A, H297A, R298A, R299A
As to B2, the potency / effectiveness result in data set [2] is “most effective of the triple mutant variants”.

B3: C84S tPA: tPA variant in which cysteine at position 84 of the growth factor domain of native tPA is replaced by serine (protein, UniProt P00750 36-562, looked up, variant C84S)
Tissue-type plasminogen …: B1 Tissue-type plasminogen … with C84S
As for B3, the “in vivo / circulatory half life” value in data set [3] was “longer in vivo half life than native tPA”. For the same molecule, the potency / effectiveness result in data set [2] was “retains the functional activity of native tPA”.
